# Measured values from the DeepSol protein solubility set.
# Test: soluble on expression in E. coli; label from the status in PepcDB or PDB records
row,Sequence,soluble on expression in E. coli
1,SAEFRVRVSTGEAFGAGTWDKVSVSIVGTRGESPPLPLDNLGKEFTAGAEEDFQVTLPEDVGRVLLLRVHKAPPVLPLLGPLAPDAWFCRWFQLTPPRGGHLLFPCYQWLEGAGTLVLQEGTAKVSWADHHPVLQQQRQEELQARQEMYQWKAYNPGWPHCLDEKTVEDLELNIKYSTAKNANFYLQAGSAFAEMKIKGLLDRKGLWRSLNEMKRIFNFRRTPAAEHAFEHWQEDAFFASQFLNGLNPVLIRRCHYLPKNFPVTDAMVASVLGPGTSLQAELEKGSLFLVDHGILSGIQTNVINGKPQFSAAPMTLLYQSPGCGPLLPLAIQLSQTPGPNSPIFLPTDDKWDWLLAKTWVRNAEFSFHEALTHLLHSHLLPEVFTLATLRQLPHCHPLFKLLIPHTRYTLHINTLARELLIVPGQVVDRSTGIGIEGFSELIQRNMKQLNYSLLCLPEDIRTRGVEDIPGYYYRDDGMQIWGAVEHFVSEIIGIYYPSDESVQDDRELQAWVREIFSKGFLNQESSGIPSSLETREALVQYVTMVIFTCSAKHAAVSAGQFDSCAWMPNLPPSMQLPPPTSKGLATCEGFIATLPPVNATCDVILALWLLSKEPGDQRPLGTYPDEHFTEEAPRRSIATFQSRLAQISRGIQERNRGLVLPYTYLDPPLIENSVSI,soluble
2,MSLGANIVSVEFIPVNVAATNWSENTVIVKVTDENGVYGLGEADGPPECMKAFSEIENEHKWLNNIKEAVIGRDPLEFRANYNRMYDTTKWIGMRGLGLFAISGIDMALYDLAGKQLGVPAYKLMGGAQKAQLTPYFTLYPSVAADATLSEIVEAYKPLIAKAKERGAKAVKVCIIPNDKVSDKEIVAYLRELREVIGWDMDMMVDCLYRWTDWQKARWTFRQLEDIDLYFIEACLQHDDLIGHQKLAAAINTRLCGAEMSTTRFEAQEWLEKTGISVVQSDYNRCGGVTELLRIMDICEHHNAQLMPHNWKTGITAAAARHFGIVCHISEYVEYLHPDFWNGTLTQQLTLNEPKIIDGAIEVSDKPGLGIELNIEFVEQVTGHKFEGHHHHHH,soluble
3,MAHHHHHHMSQLKIKRGNFLFTSESVNEGHPDKICDQISDAILDSCLREDPYSKVACEVCAKKNYIFIFGEITTKAKVNYDKVTRDVLKHIGYDDESKGLDYKTAEIKVSIDEQSPDIAQCVHENRSPELIGAGDQGIMFGYATDETENYMPLTHHYATLLGKRLTEVRKLGILPYLGPDGKTQITIEYKNKGSCGGHLEPLRVHTVLISTQHAEDIKYEQLKTDLMENVIKYVIPEKLLDNETLYYLNPSGKFVLGGPAADAGLTGRKIICDTYGGWGAHGGGAFSGKDASKVDRSAAYYLRFIAKSLVANKFCRRVLVQASYSIGIANPISLNVNSYGTVSTGYTDYDLEQIILRNFDLRPGFIIQELKLTEPVFSKTSAYGHFGREGDTFTWEKIKDLSHEKNALKN,soluble
4,MIFEKAVIVDLRTQVLDVPVQETITKDNVPVRVNAVVYFRVVDPVKAVTQVKNYIMATSQISQTTLRSVIGQAHLDELLSERDKLNMQLQRIIDEATDPWGIKVTAVEIKDVELPAGMQKAMARQAEAERERRARITLAEAERQAAEKLREAAEIISEHPMALQLRTLQTISDVAGDKSNLEHHHHHH,soluble
5,MSSQKQLEGMIFDVQSFSVHDGPGCRTTVFLNGCPLSCKWCANPESWTVRPHMMFSELSCQYENGCTVCHGKCKNGALSFNLDNKPVIDWNICKDCESFECVNSCYYNAFKLCAKPYTVDELVQVIKRDSNNWRSNGGVTFSGGEPLLQHEFLHEVLLKCHEVNIHTAIETSACVSNEVFNKIFNDIDFAFIDIKHMDREKHKEQTGVYNDLILENISNLANSDWNGRLVLRVPVISGFNDSDENISDIISFMHKNNLVEINLLPFHRLGESKWTQLGKEYEYSDKGDVDEGHLEELQDIFLDNGIACYVGHETAF,not soluble
6,LAQEKNYDLPEGVMVYVIEGPFFFGAVETFQSALANTHTDPKVLIIRMRWVPFIDVTGLQAMEEIILNLQKRGVRVLLSEANPLVDAKLRKMGIVQLIGEQNYYKEFSQALDVCRINDSDRKSQPPFEVAKPLASVTQ,not soluble
7,SAAAALRDQLTALLSSMFSQGLVDEQFQQLQMLQDEGGTPGFVSEVVTLFCDDADRIINEIATLLEQPVVNFDKVDAYVHQLKGSSASVGAQKVKFTCMQFRQFCQDKSRDGCLMALAVVRNDFYDLRNKFQTMLQLEQQIQAYDPKQQ,soluble
8,MKQSIRHNKIIELVNQLGYVSTEELVAQLAVSSQTIRRDLNELAEKNLLRRHHGGAGMPSNNENSDYSERKKFFSAQKNIIAQQVAEMIPNGSSLFLDIGTTSEAVAYALLSHQHLRIVTNNLNAAHILMQKDDFQITIAGGDLRADGGIIGEATVNFISEFRLDFGILGISAIDQDGSMLDYDYHEVQVKRALMQSSRQVILVTDHSKFNRRAIVRLGNISEVNYLFTDLPLPLELQQYLAPTNVTVYICNNLEHHHHHH,soluble
9,MIYLFSHAGLRDLRDFIDRSTLFAFDLDGTLAPIVSDPAGIMIPPDVHERLVRLNGTASVAVVTGRARVDAARHLGFAPRFLVGNHGAEGLPGADAAEREFIGLCRGWMTQLGELLPEGEGTGIVMEDKSATLSLHYRNAPDRENAHQRILAAVSRLLPAPRRVSGKLVENLVPAAAPHKGDALRCIMRHLGCARALFVGDDVTDEDVFRLGDEAIFGIRVGNSGGSAARYFIRGQDEMAPLLDEILAVLLEHHHHHH,soluble
10,SAPAPPSGWSQVFLDDFDGAAGSSVNTANWQFDTGTSYPGGAGNWGTGEVESMTSSTSNVSLDGNGDLLITPRRDASGNWTSGRIETTRTDFQPPAGGKLRVEARLQMPNVTGDAAAGYWPAFWMLGAPFRGNYQNWPGVGELDIMENVQGLNKTWATMHCGTSPGGPCNETSGIGNSTACPNTTCQSGFHTYTMEWDRSVSPEAIRFSVDGVTYQTVTANQMDAATWTNATNHGFFVILNVAMGGGFPGAFGGGPTGATEPGHPMVVDYVQVTSLSPGL,soluble
11,MGSDKIHHHHHHMQNIVDNTLLLSYLNNEYIKKLFQQFNHPFKILRYEAKETVLHEGEMIDGLYIQMSGRTKITSSVITGKALLLRFCSAVSIMGDIELIQSVNIQSHVTSEQQTDFLFIDKNYVTSYLLQDVIFLQELIHHVTYKLQTCTTASRINLLASVETRFASYLCTARNPSNLFGREIHTKDHHEIASLIGTTTRHLNRVIEKLIANNIMHKNNKQIVVDDWKAIDTLSNGLRYE,not soluble
12,MSLKIFPSSSIKKLDAYTIEHEPIASIDLMERAAQALTKAITERWDITTPVTVFAGPGNNGGDALAVARMLAEKEYKVEAYLFNPKGELSADCQTNKELVEMMDNVKFSEVSTQFVPPTLTMDHLVVDGLFGSGLNKPLSGGFAAVVKYINASPATVVAIDIPSGLMGEENTFNVKANIIRAQLTLSLQLPKLAFLFAENSEFVGEWKLLDINLSREAIEETESNYALLEAEEIHALIKPRNTFSHKGNFGHALLIAGSYGMAGASILAARACMRSGVGLLTVHAPIRNNDILQISVPEAIIESDASDTYFACPTDTDDYQAVGIGPGIGRSEETEAALLEQLSGCQTPLVLDADALNILANHRHALTTLPKGSILTPHPKELERMVGKCQNSYERLMKACELARTAKVHIILKGAYSAIITPSGKCYFNSTGNPGMATAGSGDVLTGVVLALLAQGYPAEEAAKIGTYVHGLAGDFARKKQGVISMTAGDIISNLPLAWRLVSEGHHHHHH,soluble
13,MGSDKIHHHHHHMYSSAHSGSNESNLIAFPMAATSKTALLVQVDPFQSEVWSTALASQSITVIKEGADVDLSNMLGQMASAGLTLPDLIIVDMATEGMNPFAFCRFCREQHPSVKVLLTNSTQTQIAESEQRWAMSQGAQDLLPAFQTDSLLTDLLTALGRTSGVLGLPNLDQQALIQILPKLLEPKAEATETVALPAPSVAEPSVPPAPKAQRTYRGRPY,not soluble
14,MSLNFTEDGTLPLLGSKDAKIAIIEFSDFQCPYCKRFTDSAFKQIKENYIDTGKVQYIARDFPLSFHAKAMGAAIAATCSLHQNSYWPMRDMLFSNVKDLGEELYQKAATDLSLNLEEFNKCMKDKSIANKVEQDLTLGKSLGIRGTPSFLIGRVENDQLIEPQIVVGAQRYAVFESLLEQLSNSDKAKEGHHHHHH,soluble
15,MAHHHHHHMKEYTGNRSVPTTIQNKKKSITEEINKSLHTQDSKNNQNNYEICLSDVSVSTISNSSGIDSDLYEEVIKKIKKEKKRKRKESKRDIYKEKVKYDKKESNSNDENKNDRGNEKDRKNNSDIENNSDSEYINDKEKDRKKRKHIDIDKKKRNKESHHHVNKKKDKNISTRKKRKYTSSLSSESYERRKDKKKKKEKYRNSESSYKSMVDENIPKDPFNPLLLAYEKKEKKKYRKNDEHNDLNDRWKHDRYENTSDDEDINIEKAYENSKPYFDPHEFPKILWKSKAGGVCVPQISDDKK,not soluble
16,MANHARVVRGGEMASAQWLQALAAGVEPEVRMNPVLVKPFGERGAQVVVWGKVDPFLSGLPWKERRPHLEAPVREALEGLLAEYDLLVLEGAGSPVERNLWPDLPNLRVAEWADAKALLVADVDQGGALGALYGTWALLGEHRKRLIGFAFNKFRGDLELLKPAYALLRDWTGLPVLGTLPLLPLALPEEDGFRYRQPAGNGPKVALLRYPHAANLDEFWPLSELAQVVYAHSPEEAEGAWLLILPGSRLPARDLPWLRAFLPLIQRHLEAGKPVLAVCGGAEMLSEALLDEEGVEERGHFPGLGLLPYRVRMAREKTVERRRVRLRGLSGYWGRLEGLEVEGYEIHHGQGLPLFHQEGSLLATWLHGLLENPGVQKALFGREARGLEEGLEALADALERHLDLRALHRALGLTGRAFPASPTEAKAPVGCPDPPPPPGLVLLLGGAKSGKSRFAQRLAGPFATLVATAEARDEEMAEKIRRHQEERPPTWETLEAPLDLVGALKRARHPTVVVDCLTLWVANLMERGLDPLLEARRFLSAVEESGKRVIAVSNEVGMGIVPQNPLARRYRDLLGQVNALLAEAAQEAYLLVAGRALPLGGGKVPAQEAKRPGSHGGEPGPGRSRDPGP,soluble
17,LTETGALFKLEVALLKDKVTLTLDTTGPSLFKRGYRIEKGGAPLKENMAAALVMLTNWRKDRPFYDPVCGSGTICIEAALIGHNIAPGFNRSFTCETWDWVDPAIFEKVRNEAEAKADYDVELDICGSDVDGRMIEVARANAEEVGLGDSITFKQLALKDFTTEKEYGVMVANPPYGERLGEEESVRRLYKEMGHVFRPLTTWSKYILTSDLAFEEYYGAKATKKRKLYNGALRTDLFQYWGTRPPRKPRED,not soluble
18,MATPTFDTIEAQASYGIGLQVGQQLSESGLEGLLPEALVAGIADALEGKHPAVPVDVVHRALREIHERADAVRRERFKAMAAEGVKYLEENREKDGVNSTESGLQFRVLTQGEGAIPARTDRVRVHYTGKLIDGTVFDSSVARGEPAEFPVNGVIAGWIEALTLMPVGSKWELTIPQELAYGERGAGASIPPFSTLVFEVELLEIL,not soluble
19,MLFCTNIAIAQGTIEDYRRAYSAGEKFSANKVSYSNVNPEWIGKTHYFWYVRNTPDGRIYVLVDADTQNRKDLFDHKLVAAALSEASGRKIEATSLYLDRLSVNNGLDTLHFVFNNHRWMYVIDKNQLTDEGALPTPRKQRHWMETDDEKTAAPVTSPDKKYTAFIKNHNIYVKETATGKEKQLSLDGTLGNYYSAYIRWSPDSKKSLPARFVR,not soluble
20,MSLTREAYHRLTPLPHPGGRLFIKPGARGYRDPVHDLLQKTVEPFGERALDLNPGVGWGSLPLEGRMAVERLETSRAAFRCLTASGLQARLALPWEAAAGAYDLVVLALPAGRGTAYVQASLVAAARALRMGGRLYLAGDKNKGFERYFKEARALLGYGVVVRREGPYRVALLEKEKEAPPLPSLWRAFSARILGAEYTFHHLPGVFSAGKVDPASLLLLEALQERLGPEGVRGRQVLDLGAGYGALTLPLARMGAEVVGVEDDLASVLSLQKGLEANALKAQALHSDVDEALTEEARFDIIVTNPPFHVGGAVILDVAQAFVNVAAARLRPGGVFFLVSNPFLKYEPLLEEKFGAFQTLKVAEYKVLFAEKRGRHHHHHH,soluble
